# According to US20210301025A1 (published 2021):
# Where a chain is given by its changes, count along the chain named.
# B1: P54CR4-31 (designed binder, not shown: small tags and cut ends)
# chain: LPAPKNLVVSEVTEDSLRLSWTAPDAAFDSFLIQYQESEKVGEAINLTVPGSERSYDLTGLKPGTEYTVSIYGVLGSYVFEHDVMLPLSAEFTT
# B2: P53A1R5-17 (designed binder, not shown: small tags and cut ends)
# chain: LPAPKNLVVSEVTEDSLRLSWADPHGFYDSFLIQYQESEKVGEAINLTVPGSERSYDLTGLKPGTEYTVSIYGVHNVYKDTNMRGLPLSAEFTT
# B3: P54AR4-48 (designed binder, not shown: small tags and cut ends)
# chain: B2 chain with A22D, H25R, D29E
# B4: P54AR4-83 (designed binder, not shown: small tags and cut ends)
# chain: B2 chain with A22D, H25W, G26A, D29E
# B5: P54AR4-73 (designed binder, not shown: small tags and cut ends)
# chain: B2 chain with A22T, D23W, H25Y, G26A, F27D, Y28L
# notes: also called P54AR4-37
# B6: P54AR4-17 (designed binder, not shown: small tags and cut ends)
# chain: B2 chain with A22T, D23Y, P24D, H25R, G26D, F27G
# B7: ECB96 (designed binder, not shown: small tags and cut ends)
# chain: MLPAPKNLVVSEVTEDSARLSWDDPWAFYESFLIQYQESEKVGEAIVLTVPGSERSYDLTGLKPGTEYTVSIYGVHNVYKDTNIRGLPLSAIFTTAPAPAPAPAPLPAPKNLVVSRVTEDSARLSWTAPDAAFDSFWIRYFEFVSKGDAIVLTVPGSERSYDLTGLKPGTEYVVNILGVKGGSISPPLSAIFTT
# notes: Bispecific: P54AR4-83v22, (AP)5, P114AR9P122-A7v2
# B8: ECB106 (designed binder, not shown: small tags and cut ends)
# chain: B7 chain with W26H, V144L, S145G, K146S, D148E, S183K
# notes: Bispecific: P54AR4-83v23, (AP)5, P114AR7P94-A3v22
# B9: ECB109 (designed binder, not shown: small tags and cut ends)
# chain: B7 chain with W26H, V144L, S145G, K146S, D148E, G178S
# notes: Bispecific: P54AR4-83v23, (AP)5, P114AR7P95-C5v2
# B10: ECB108 (designed binder, not shown: small tags and cut ends)
# chain: B7 chain with W26H
# notes: Bispecific: P54AR4-83v23, (AP)5, P114AR9P122-A7v2
# B11: ECB97 (designed binder, not shown: small tags and cut ends)
# chain: B7 chain with V144L, S145G, K146S, D148E, G178S
# notes: Bispecific: P54AR4-83v22, (AP)5, P114AR7P95-C5v2
# B12: ECB107 (designed binder, not shown: small tags and cut ends)
# chain: B7 chain with W26H, S145G, K146S, D148E
# notes: Bispecific: P54AR4-83v23, (AP)5, P114AR9P121-A6v2
# B13: ECB147v3-PEG24 (designed binder)
# chain: MLPAPKNLVVSEVTEDSARLSWDDPWAFYESFLIQYQESEKVGEAIVLTVPGSERSYDLTGLCPGTEYTVSIYGVHNVYKDTNMRGLPLSAIFTTAPCPAPAPAPLPAPKNLVVSRVTEDSARLSWTAPDAAFDSFWIRYFEFLGSGEAIVLTVPGSERSYDLTGLCPGTEYVVNIMSVKGGSISPPLSAIFTTAPCPAPAPAPLAEAKVLANRELDKYGVSDYYKNLINNAKTVEGVKALLDEILAALP
# modifications: PEG24-maleimide on the engineered cysteines
# B14: ECB147v7-PEG24 (designed binder)
# chain: B13 chain with C63K, C167K
# modifications: PEG24-maleimide on the engineered cysteines
# B15: ECB147v6-PEG24 (designed binder)
# chain: B13 chain with C98A, C167K, C197A
# modifications: PEG24-maleimide on the engineered cysteine
# B16: ECB147v5-PEG24 (designed binder)
# chain: B13 chain with C98A, C197A
# modifications: PEG24-maleimide on the engineered cysteines
# B17: P54AR4-81 (designed binder, not shown: small tags and cut ends)
# chain: LPAPKNLVVSEVTEDSLRLSWDYDLGVYFDSFLIQYQESEKVGEAINLTVPGSERSYDLTGLKPGTEYTVSIYGVHNVYKDTNMRGLPLSAEFTT
# B18: P54AR4-74 (designed binder, not shown: small tags and cut ends)
# chain: B2 chain with A22G, D23Y, P24N, H25G, G26D, F27H, Y28F
# Target: T1, human EGFR on cells (A431, NCI-H292, NCI-H322, NCI-H441) (human, UniProt P00533 25-1210)
# Experiment: cell-based or functional assay
NCI-H292 Growth IC50,NCI-H322 Growth IC50,Phospho-EGFR IC50 (A431 cells),Binder
1150 nM,> 3070 nM,179 nM,B1
86 nM,65 nM,> 2500 nM,B2
,,170 nM,B3
5.9 nM,9.2 nM,18 nM,B4
83 nM,73 nM,141 nM,B5
,,184 nM,B6

# Target: T1, human EGFR on cells (A431, NCI-H292, …)
# Experiment: cell-based or functional assay
# Remark: another data set of the same source
row,pEGFR inhibition in H292 cells IC50,Binder
1,24.7 nM,B7
2,367 nM,B8
3,432 nM,B9
4,814 nM,B10
5,16.6 nM,B11
6,812 nM,B12

# Target: T2, human c-Met on cells (NCI-H441, NCI-H292, U87-MG) (human, UniProt P08581 25-1390)
# Experiment: cell-based or functional assay
row,pMet inhibition in H441 cells IC50,Binder
1,835 nM,B7
2,53.3 nM,B8
3,26 nM,B9
4,126 nM,B10
5,24.2 nM,B11
6,29.9 nM,B12

# Target: T1, human EGFR on cells (A431, NCI-H292, …)
# Experiment: cell-based or functional assay
# Remark: another data set of the same source
row,"IC50 of inhibition of EGF-stimulated EGFR phosphorylation, NCI-H292 cells",Binder
1,1.6 nM,B13
2,1.4 nM,B14
3,1.4 nM,B15
4,0.9 nM,B16

# Target: T2, human c-Met on cells (NCI-H441, …)
# Experiment: cell-based or functional assay
# Remark: another data set of the same source
row,"IC50 of inhibition of HGF-stimulated c-Met phosphorylation, NCI-H292 cells",Binder
1,0.5 nM,B13
2,0.5 nM,B14
3,0.4 nM,B15
4,0.4 nM,B16

# Target: T3, recombinant human extracellular domain of EGFR fused to an IgG1 Fc (human, UniProt P00533 25-645)
# T3 construct: Bought (R&D Systems); captured on anti-human Fc IgG for SPR; also called EGFR-Fc
# Experiment: SPR (ProteOn) per Example 3
# Source text: (§1) Select EGFR/c-Met molecules were characterized for their affinity to both EGFR and c-Met, their ability to inhibit EGFR and c-Met autophosphorylation, and their effect on proliferation of HGF cells. Binding affinity of the bispecific EGFR/c-Met molecules to recombinant EGFR and/or c-Met extracellular domain was further by surface Plasmon resonance methods using a Proteon Instrument (BioRad) according to protocol described in Example 3.
row,Kd,Binder
1,1.6 nM,B7
2,16.7 nM,B8
3,17.3 nM,B9
4,15.3 nM,B10
5,1.3 nM,B11
6,16.9 nM,B12

# Target: T4, recombinant c-Met extracellular domain (human, UniProt P08581 16-932)
# T4 construct: Construct used for SPR is not described further (may be the Fc chimera, as the protocol captures on anti-human Fc)
# Experiment: SPR (ProteOn) per Example 3
# Source text: as §1
row,Kd,Binder
1,22.1 nM,B7
2,5.1 nM,B8
3,2.1 nM,B9
4,25.5 nM,B10
5,1.7 nM,B11
6,9 nM,B12

# Target: T1, human EGFR on cells (A431, NCI-H292, …)
# Experiment: A431 cell competition with biotinylated EGF
# Description: A431 cells were plated at 5,000/well in opaque black 96-well plates and allowed to attach overnight at 37° C., in a humidified 5% CO₂ atmosphere. […] Cells were washed 3 times with 150 μL/well of FACS stain buffer. Cells were incubated with 50 μL/well of streptavidin-phycoerythrin conjugate (Invitrogen) diluted 1:100 in FACS stain buffer for 20 minutes at room temperature. Cells were washed 3 times with 150 μL/well of FACS stain buffer, after which wells were filled with 100 μL of FACS stain buffer and read for fluorescence at 600 nm using an Acumen eX3 reader. Data were plotted as the raw fluorescence signal against the logarithm of FN3 domain molar concentration and fitted to a sigmoidal dose-response curve with variable slope using GraphPad Prism 4 (GraphPad Software) to calculate IC₅₀ values.
row,IC50,Binder
1,121 nM,B17
2,55 nM,B1
3,9.8 nM,B2
4,9.8 nM,B3
5,1.8 nM,B4
6,4.6 nM,B5
7,21 nM,B6

# Target: T1, human EGFR on cells (A431, NCI-H292, …)
# Experiment: A431 cell binding, anti-His-Alexa488 fluorescence
# Description: A431 cells were plated at 5,000/well in opaque black 96-well plates and allowed to attach overnight at 37° C., in a humidified 5% CO₂ atmosphere. […] Supernatant was removed and cells were washed 3 times with 150 μL/well of FACS stain buffer. Cells were incubated with 50 μL/well of anti-penta His-Alexa488 antibody conjugate (Qiagen) diluted 1:100 in FACS stain buffer for 20 minutes at room temperature. Cells were washed 3 times with 150 μL/well of FACS stain buffer, after which wells were filled with 100 μL of FACS stain buffer and read for fluorescence at 488 nm using an Acumen eX3 reader. Data were plotted as raw fluorescence signal against the logarithm of the FN3 domain molar concentration and fitted to a sigmoidal dose-response curve with variable slope using GraphPad Prism 4 (GraphPad Software) to calculate EC₅₀ values.
row,EC50,Binder
1,84 nM,B17
2,4 nM,B2
3,12 nM,B3
4,2.2 nM,B4
5,9.4 nM,B5
6,77 nM,B18
7,16 nM,B6

# Target: T3, recombinant human extracellular domain …
# Experiment: SPR (ProteOn), EGFR-Fc captured on anti-human Fc IgG
# Description: Select EGFR-binding FN3 domains were screened to identify those with slow off-rates (koff) in binding to EGFR-Fc on a ProteOn XPR-36 instrument (Bio-Rad) to facilitate selection of high affinity binders. Goat anti-human Fc IgG (R&D systems), at a concentration of 5 μg/mL, was directly immobilized via amine coupling (at pH 5.0) on all 6 ligand channels in horizontal orientation on the chip with a flow rate of 30 μL/min in PBS containing 0.005% Tween-20. The immobilization densities averaged about 1500 Response Units (RU) with less than 5% variation among different channels. EGFR-Fc was captured on the anti-human Fc IgG surface to a density around 600 RU in vertical ligand orientation. All tested FN3 domains were normalized to a concentration of 1 μM and tested for their binding in horizontal orientation. All 6 analyte channels were used for the FN3 domains to maximize screening throughput. The dissociation phase was monitored for 10 minutes at a flow rate of 100 μL/min. The inter-spot binding signals were used as references to monitor non-specific binding between analytes and the immobilized IgG surface, and were subtracted from all binding responses. The processed binding data were locally fit to a 1:1 simple Langmuir binding model to extract the koff for each FN3 domain binding to captured EGFR-Fc.
# Binding affinity of selected EGFR-binding FN3 domains to recombinant EGFR extracellular domain was further characterized by surface Plasmon resonance methods using a Proteon Instrument (BioRad). The assay set-up (chip preparation, EGFR-Fc capture) was similar to that described above for off-rate analysis. Selected EGFR binding FN3 domains were tested at 1 μM concentration in 3-fold dilution series in the horizontal orientation. A buffer sample was also injected to monitor the baseline stability.
row,Kd,Binder
1,0.383 nM,B1
2,1.89 nM,B2
3,7.78 nM,B3
4,0.255 nM,B4
5,0.197 nM,B5
6,9.62 nM,B6
